The values below come from US20220119534A1 (DRAGONFLY THERAPEUTICS, published 2022).

Assay [1] concerns the target T1, recombinant human CLEC12A-His (human, UniProt Q5QGZ9 65-265).
T1 construct: also called hCLEC12A-His; hCLEC12A
T1 sequence: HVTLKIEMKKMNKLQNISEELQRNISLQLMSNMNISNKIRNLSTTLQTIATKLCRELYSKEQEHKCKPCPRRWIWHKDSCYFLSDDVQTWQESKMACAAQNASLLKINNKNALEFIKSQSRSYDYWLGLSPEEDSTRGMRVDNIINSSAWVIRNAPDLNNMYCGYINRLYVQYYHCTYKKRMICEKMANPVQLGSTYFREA
The assay is described as follows: SPR, purified murine mAb.

For assay [2], the target named is T2, human CLEC12A expressed on cells (human, UniProt Q5QGZ9 1-265).
T2 construct: Transduced isogenic cells or endogenous expression on AML cells; also called RMA-hCLEC12A; Ba/F3-hCLEC12A
T2 sequence: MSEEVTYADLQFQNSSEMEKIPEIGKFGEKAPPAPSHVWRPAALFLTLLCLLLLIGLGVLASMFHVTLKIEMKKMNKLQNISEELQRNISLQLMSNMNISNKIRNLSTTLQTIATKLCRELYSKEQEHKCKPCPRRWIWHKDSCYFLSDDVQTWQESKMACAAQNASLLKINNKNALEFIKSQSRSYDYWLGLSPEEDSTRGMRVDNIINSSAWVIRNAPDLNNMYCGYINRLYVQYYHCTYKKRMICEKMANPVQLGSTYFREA
The assay can be described thus: flow cytometry, PL21 cells.
Description: The ability of the eight purified subcloned mAbs to bind to CLEC12A expressing cells was assessed by FACS analysis with human CLEC12A-positive PL21 cancer cell line.

Assay [3] has as its target T3, cynomolgus CLEC12A expressed on RMA cells (cynomolgus monkey, UniProt A0A2K5WXQ4 7-271).
T3 construct: whole, on cells; also called cCLEC12A isogenic cell line
T3 sequence: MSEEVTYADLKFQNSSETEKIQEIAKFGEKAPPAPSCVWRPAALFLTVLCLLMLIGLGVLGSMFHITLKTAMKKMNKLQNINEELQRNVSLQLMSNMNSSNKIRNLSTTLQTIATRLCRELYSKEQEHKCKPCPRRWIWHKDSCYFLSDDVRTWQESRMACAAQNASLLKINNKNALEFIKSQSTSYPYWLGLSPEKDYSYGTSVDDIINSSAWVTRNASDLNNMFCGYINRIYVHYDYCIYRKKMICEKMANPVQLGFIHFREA
The assay can be described thus: flow cytometry, RMA-cCLEC12A, hybridoma supernatant. Background: In flow cytometry, cells or beads pass a laser one at a time.
Description: Briefly, RMA cells were transducted with a retroviral vector encoding cCLEC12A or hCLEC12A. […] 100,000 RMA, REH or SEM cells were added per well of a 96 well round bottom plate. Cells were spun down and the pellet was gently dissociated by vortexing. 100 μL of Zombie live/dead dye (PBS+1:2000 dye) were added per well and incubated in the dark at room temperature for 20 minutes. Cells were washed with 200 μL of FACS buffer (PBS+2% FBS). 50 μL of hybridoma supernatants were added to the washed cells and the mixtures were incubated for 30 minutes on ice in the dark. Cells were washed twice with FACS buffer and then 50 μL of anti-mouse Fc-PE secondary reagent (1:200 dilution) were added and incubated for 20 minutes on ice in the dark. After the incubation, the cells were washed and then fixed with 50 μL of 4% paraformaldehyde for 15 minutes on ice. The fixed cells were washed with FACS buffer, resuspended in 200 μL FACS buffer, and stored at 4° C. until ready for acquisition. The samples of cells resuspended in FACS buffer were run on BD FACSCelesta equipped with an HTS (high throughput sampler) to determine the binding affinities of the antibodies to isogenic RMA cells expressing CLEC12A and the U937 AML cancer cell line.

Assay [4] addresses T4, recombinant cynomolgus CLEC12A-His (cynomolgus monkey, UniProt A0A2K5WXQ4 71-271).
T4 construct: also called cCLEC12A-His; cCLEC12A
T4 sequence: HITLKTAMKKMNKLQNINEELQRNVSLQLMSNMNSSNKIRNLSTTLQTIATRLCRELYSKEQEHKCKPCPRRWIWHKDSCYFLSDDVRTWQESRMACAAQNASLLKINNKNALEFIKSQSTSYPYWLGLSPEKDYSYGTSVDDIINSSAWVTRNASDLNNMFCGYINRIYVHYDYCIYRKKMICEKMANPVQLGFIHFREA
The assay can be described thus: SPR, purified murine subclone mAb and Cyno CLEC12A-His. In general terms: SPR reads the build-up and loss of mass on a sensor chip optically.

Assay [5] concerns the target T1, recombinant human CLEC12A-His. The assay can be described thus: SPR; sensorgrams of a CLEC12A concentration series with fit overlays (response up to about 18, time axis 0 to about 900).
Assay [6] concerns the target T2, human CLEC12A expressed on cells. The assay is described as follows: flow cytometry (MFI) on CLEC12A+ PL-21 AML cells, about 0.2 to 130 nM, plateau about 250 MFI; the molecule is assigned by panel order and legend paragraph 296.
Assay [7] deals with T1, recombinant human CLEC12A-His. The assay is described as follows: SPR.
A further assay addresses T5, de-sialylated hCLEC12A (human, UniProt Q5QGZ9 65-265, terminal sialic acids removed (neuraminidase)).
T5 construct: also called De-sialylated CLEC12A
T5 sequence: T1 sequence
The assay can be described thus: SPR.

Another assay has as its target T6, de-glycosylated hCLEC12A (human, UniProt Q5QGZ9 65-265, N-linked glycans removed (PNGase F)).
T6 construct: also called PNGase-treated hCLEC12A; De-glycosylated CLEC12A
T6 sequence: T1 sequence
The assay can be described thus: SPR.

For assay [8], the target named is T1, recombinant human CLEC12A-His. The assay is described as follows: SPR screening, fully purified mAb.
The target is the same in assay [9]. The assay can be described thus: SPR, CLEC12A binding.
In assay [10] the target is T2, human CLEC12A expressed on cells. The assay is described as follows: flow cytometry (gMFI) on CLEC12A+ PL-21 AML cells.
Assay [11] addresses T4, recombinant cynomolgus CLEC12A-His. The assay is described as follows: SPR, purified murine subclone mAb and Cyno CLEC12A-His. The source holds these as a separate data set.
Assay [12] shares this target. Described as above. This is another data set of the same source.
Assay [13] addresses T2, human CLEC12A expressed on cells. The assay can be described thus: flow cytometry on PL21 cells, surface-bound molecule after 2 h at 37 C relative to 20 min on ice.
Description: Human cancer cell lines HL60 and PL21 expressing human CLEC12A were used to assess surface retention of CLEC12A-TriNKETs after incubation with cells. PL21 or HL60 cells in duplicate plates were incubated with TriNKETs or mAbs as indicated. The first plate was moved to 37° C. for two hours, whereas the second plate was incubated on ice for 20 minutes. After the respective incubation times, cells were washed. Surface bound TriNKET or mAb was detected using a fluorescent secondary antibody for flow cytometry.
100,000 cells were seeded per well into duplicate 96-well plates for FACS staining. Cells were washed with FACS buffer. Test articles were diluted to 40 nM and were added to each of the duplicate plates. The first plate was incubated on ice for 2 hours, while the second plate was moved to 37° C. for two hours. After the incubation, cells were washed with PBS and cells were incubated in a 1:2000 dilution of live/dead dye in PBS for 15 minutes, then washed with FACS buffer. Anti-human IgG-Fc secondary antibody was diluted into FACS buffer, and 50 μl was added per well for detection of the bound TriNKETs or mAbs. Cells were incubated for 20 minutes on ice, then washed with FACS buffer. 50 μl of fixation buffer was added to each well, and cells were incubated for 10 minutes at room temperature. […] Surface retention was then calculated as follows:

Like-named read-outs stand apart in the source and are kept apart here.

The term Kd denotes the free concentration of one partner at which half of the binding sites on the other are occupied at equilibrium, for simple one-to-one binding. Usually koff stands for the rate constant with which the complex falls apart. The term kon denotes the second-order rate constant of association. Usually EC50 stands for the concentration that produces a half-maximal response.

B1: 9F11.B7 (antibody, V domains shown)
VH: EVQLQESGGGLVQPGGSRKLSCAASGFTFNSFGMHWVRQAPEKGLEWVAFISSGSTSIYYANTVKGRFTISRDNPKNTLFLQMTSLRSEDTAMYYCARDGYPTGGAMDYWGQGTSVTVSS
VL: DIKMTQSPSSMYASLGERVTITCKASQDIYNYLSWFQLKPGKSPRPLIYRANILVSGVPSKFSGSGSGQDYSLTINSLEYEDLGIYYCLQFDAFPFTFGSGTKLEIK
notes: Murine mAb
Regarding B1, in assay [1], the Kd was determined as 1.4 nM, the koff amounted to 0.00157 s⁻¹ and the on-rate constant (kon) is 1.14e+06 M⁻¹ s⁻¹. Besides, in [2], a half-maximal effect (EC50) was put at 0.56 nM and the “Max MFI” value was found to be 217 MFI. The binding result in assay [3] is recorded as “no binding”. In addition, in assay [4], the binding result is on record as “no binding”. For the same molecule, the Kd in assay [5] turned out to be 1.1 nM. Also, the EC50 in assay [6] amounted to 0.5 nM.

B2: 16B8.C8 (antibody, V domains shown)
VH: EVQLQESGPGLVQPSQSLSITCTVSGFSLTNYGLHWVRQSPGKGLEWLGVIWSGGKTDYNTPFKSRLSISKDISKNQVFFKMNSLQPNDTAIYFCAKYDYDDSLDYWGQGTSVTVSS
VL: DIQMNQSPSSLSASLGDTIAITCHASQNINFWLSWYQQKPGNIPKLLIYEASNLHTGVPSRFSGSGSGTRFTLTISSLQPEDIATYYCQQSHSYPLTFGQGTKLEIK
notes: Murine mAb; also called 16B08; m16B8.C8
B2: the Kd in assay [7] is 0.012 nM; with de-sialylated hCLEC12A it was 0.007 nM; with de-glycosylated hCLEC12A it was 0.011 nM; in assay [1], 0.01 nM; in assay [8], 0.008 nM; in assay [9], no more than 0.011 nM. The koff was 4.7e-05 s⁻¹ in assay [7]; 3.62e-05 s⁻¹ in the assay with de-sialylated hCLEC12A; 4.45e-05 s⁻¹ with de-glycosylated hCLEC12A; 4.44e-05 s⁻¹ in assay [1]; 2.35e-05 s⁻¹ in [8]. Further, the kon was 4.05e+06 M⁻¹ s⁻¹ in [7]; 5.25e+06 M⁻¹ s⁻¹ with de-sialylated hCLEC12A; 4.26e+06 M⁻¹ s⁻¹ with de-glycosylated hCLEC12A; 4.05e+06 M⁻¹ s⁻¹ in [1]; 3.03e+06 M⁻¹ s⁻¹ in assay [8]. In addition, the EC50 in assay [2] was 0.18 nM; in assay [10], 0.2 nM. Also, in assay [2], the “Max MFI” value stood at 300 MFI. In addition, the binding result in [3] and in assay [11] was “no binding” each time.

B3: 9E4.B7 (antibody, V domains shown)
VH: EVQLQESGAELMKPGASVKISCRTTGYTFSTYWIEWVKQRPGRGPEWIGELFPGNSDTTLNEKFTGKATFTADSSSNTAYMQLSSLTSEDSAVYYCARSGYYGSSLDYWGQGTTLTVSS
VL: GIVMTQSPASLSASVGETVTITCRAGENIHSYLAWYQQKQGKSPQLLVYNAKTLAEGVPSRFSGSGSGTQFSLKINSLQPEDFGSYYCQHHYGTPRTFGGGTKLEIK
notes: Murine mAb; also called 9E04
Regarding B3, in assay [2], the EC50 came to 0.64 nM and the “Max MFI” value was found to be 186 MFI. Moreover, in assay [3], the binding result is listed as “no binding”. Also, the binding result in assay [12] is on record as “no binding”.

B4: AB0147 TriNKET (other)
chain: QLQLQESGPGLVKPSETLSLTCTVSGFSLTNYGLHWIRQPPGKCLEWIGVILSGGWTDYNPSLKSRVTISKDTSKNQFSLKLSSVQAADTAVYYCAKGDYGDALDYWGQGTLVTVSSGGGGSGGGGSGGGGSGGGGSDIQMTQSPSSLSASVGDRVTITCHASQNINFWLSWYQQKPGKAPKLLIYEASNLHTGVPSRFSGSGSGTRFTLTISSLQPEDIATYYCQQSHSYPLTFGCGTKLEIKGSDKTHTCPPCPAPELLGGPSVFLFPPKPKDTLMISRTPEVTCVVVDVSHEDPEVKFNWYVDGVEVHNAKTKPREEQYNSTYRVVSVLTVLHQDWLNGKEYKCKVSNKALPAPIEKTISKAKGQPREPRVYTLPPCRDELTKNQVSLTCLVKGFYPSDIAVEWESNGQPENNYKTTPPVLVSDGSFTLYSKLTVDKSRWQQGNVFSCSVMHEALHNHYTQKSLSLSPG
heavy: EVQLVESGGGLVKPGGSLRLSCAASGFTFSSYSMNWVRQAPGKGLEWVSSISSSSSYIYYADSVKGRFTISRDNAKNSLYLQMNSLRAEDTAVYYCARGAPIGAAAGWFDPWGQGTLVTVSSASTKGPSVFPLAPSSKSTSGGTAALGCLVKDYFPEPVTVSWNSGALTSGVHTFPAVLQSSGLYSLSSVVTVPSSSLGTQTYICNVNHKPSNTKVDKKVEPKSCDKTHTCPPCPAPELLGGPSVFLFPPKPKDTLMISRTPEVTCVVVDVSHEDPEVKFNWYVDGVEVHNAKTKPREEQYNSTYRVVSVLTVLHQDWLNGKEYKCKVSNKALPAPIEKTISKAKGQPREPQVCTLPPSRDELTENQVSLTCLVKGFYPSDIAVEWESNGQPENNYKTTPPVLDSDGSFFLYSWLTVDKSRWQQGNVFSCSVMHEALHNHYTQKSLSLSPG
light: DIQMTQSPSSVSASVGDRVTITCRASQGISSWLAWYQQKPGKAPKLLIYAASSLQSGVPSRFSGSGSGTDFTLTISSLQPEDFATYYCQQGVSFPRTFGGGTKVEIKRTVAAPSVFIFPPSDEQLKSGTASVVCLLNNFYPREAKVQWKVDNALQSGNSQESVTEQDSKDSTYSLSSTLTLSKADYEKHKVYACEVTHQGLSSPVTKSFNRGEC
Consider B4, for which the binding result in assay [13] is “binds”.
